Data as given in PMC4598080.

T1: Rpl5 (uL18) (S. cerevisiae (endogenous in yeast cells)) (UniProt P26321)
T1 sequence: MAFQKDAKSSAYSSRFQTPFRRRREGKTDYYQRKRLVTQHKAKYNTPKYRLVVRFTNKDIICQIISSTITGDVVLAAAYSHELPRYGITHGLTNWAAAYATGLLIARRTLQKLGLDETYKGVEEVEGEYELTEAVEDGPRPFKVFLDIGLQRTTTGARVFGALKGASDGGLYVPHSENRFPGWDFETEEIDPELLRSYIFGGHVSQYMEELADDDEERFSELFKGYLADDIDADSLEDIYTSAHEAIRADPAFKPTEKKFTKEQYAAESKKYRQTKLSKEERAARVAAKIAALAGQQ


Experiments:
[1] = target: Rpl4 (uL4), non-ribosome bound (S. cerevisiae (endogenous in yeast cells)) (UniProt P10664)
[2] = target: T1, Rpl5 (uL18) (S. cerevisiae (endogenous in yeast cells))

UniProt P10664, sequence (P10664 whole entry): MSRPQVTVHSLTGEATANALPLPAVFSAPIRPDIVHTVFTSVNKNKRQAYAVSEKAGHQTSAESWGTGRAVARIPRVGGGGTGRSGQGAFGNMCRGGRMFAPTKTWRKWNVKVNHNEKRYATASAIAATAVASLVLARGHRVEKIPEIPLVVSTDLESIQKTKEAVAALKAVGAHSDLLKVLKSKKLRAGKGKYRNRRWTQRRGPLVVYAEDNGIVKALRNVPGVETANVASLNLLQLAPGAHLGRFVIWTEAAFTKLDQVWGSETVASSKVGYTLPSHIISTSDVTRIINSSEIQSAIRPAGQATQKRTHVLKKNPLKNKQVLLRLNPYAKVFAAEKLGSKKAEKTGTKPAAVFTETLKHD

Row | enrichment of the RPL4 mRNA, compared to the non-specific r-protein mRNAs, in the Acl4-TAP IgG-Sepharose purification from extracts of cycloheximide-treated cells (real-time qRT-PCR) [1] | enrichment of the RPL5 mRNA, compared to the non-specific r-protein mRNAs, in the Syo1-FTpA IgG-Sepharose purification from extracts of cycloheximide-treated cells (real-time qRT-PCR) [2] | Binder
1 | 150 fold |  | C-terminally TAP-tagged Acl4 (natural protein) MSELEATIRQAKEALAENNAKKALKILKPFKSSLKKENANNVILNEVFADAYLDNGQVEKAYPILARACELDPEGQVGGPDKFFTMGQIMGGQDGVSIITRGIMNISNTGGEMLTNVQVEKIVGGLLSVIEIWMTDLCMEPNAEEQCEELIQKAMELTEGKSPETWSTLGSIKISQQKFGEAYEAFSQAWNFFELKKQEIGSGINENGDTTQKAGLQSEYVDLLQPLLSLTKMCLEVGAYEVALKVIAAVRDIDEDNIEGYYLEGFTYYLMSKLEIFKLNNPEVSLRPENIYEFNQLIQEVPLDLSHEPISQLIYDSRLALSFALQAGVNADSKDEIVQELLGGANALLQEIGGPLDPSELTQIKKGDLVNENEDLEELDIEEEYSD
2 |  | 150 fold | Syo1-FTpA (natural protein) MGRSKKRSRASSSRLNPLRKAGSNDNNKDTNVVNKKLQPLLQNLSSVVPNDRSIALSSISVLCEDAHMRQLLLKEKLVPIILNKLLNDSNSDIVVESFGLLRNLSLEEGYDVSIYLWRSDIWTSITSNFGRIVESLSALQAAEQQPQLKPAGKSKIESKRLLFDFADNLLSLVVALSNGSDDILNEILTESKINEIFQVISQLLKYGVEKLPINLFNTTLDLIYDLSSESFEFIDHVSNNELLSQFLNGLSPALHPQANELTKVLIEGIHCQFLDMKITYDQCNKMIHSVCHSINNIDPVQLVNDINNPVEIGPATSKDESSKVITKIKDYNAKRNESMIKLQSIEIAIDLITAIIEIVASKYESPESQEVAIPEELINTLTNFLPHVFMILKDTFTSRILIGWNNLIWLFVSLSLTELSGELLTTLWSYVTQLDSQDDLSIKIGRMGCIWALLKLIFPDGAFESENRALINVQMLNNSGFARGIIEEFQNNNDLELQQKCINVLSTYAMIQGQIDANKEIGQFFIQTLTQLNVRPEILIEMTNSLFQIYGDASYDYNEPIFVRGGFLSILKDQVVPNLRQQFKMVDKNKNPELKERCHDCFTTLDSFIHYKMNENSTNQ
